For this test, the system named is uterine epithelial cells (UEC). The test can be described thus: Sperm binding to UEC monolayer pre-incubated with lectin. It counts as cell-based, porcine. Particulars: UEC pre-incubated with lectin 10 μg/ml 15 min, then sperm 10 min. How it is done: Confluent UEC were grown on glass cover slips form primary cell cultures. In total, uteri from 78 primiparous German Landrace or German Edelschwein gilts aged 8-10 months and with live weights of over 110 kg, were retrieved to harvest primary cells. All animals were maintained and handled according to the German regulations for animal welfare. Gilts were monitored for natural oestrus and slaughtered according to standing heat, i.e. at the time when artificial insemination would have been performed. Gilts were stunned electrically and subsequently slaughtered by exsanguination. Three minutes after bleeding the abdomen was opened and the uterus removed in toto. Further, the ovaries, oviducts and the mesometrium were removed by cutting with sterile scissors without damaging the myometrium. The uterine horns were ligated with stitching thread between and a section of 20-25 cm was cut off. The sections were placed in sterile phosphate buffered saline (PBS) without Ca^++ and Mg^++ (Karl Roth, Karlsruhe, Germany) containing 2% Penicillin/Streptomycin (P/S; PAA, Pasching, Austria) in a glass bottle and kept at 5° C. for 45 min. After 45 min at 5° C. the uterine sections were removed from the bottle and placed on cellulose tissue under a sterile laminar flow system. The stitching material was removed. […]

B1: PNA: lectin with affinity for β-D-(1-3)-D-galactosamine (protein, UniProt P02872 24-273, looked up)
Galactose-binding lectin: AETVSFNFNSFSEGNPAINFQGDVTVLSNGNIQLTNLNKVNSVGRVLYAMPVRIWSSATGNVASFLTSFSFEMKDIKDYDPADGIIFFIAPEDTQIPAGSIGGGTLGVSDTKGAGHFVGVEFDTYSNSEYNDPPTDHVGIDVNSVDSVKTVPWNSVSGAVVKVTVIYDSSTKTLSVAVTNDNGDITTIAQVVDLKAKLPERVKFGFSASGSLGGRQIHLIRSWSFTSTLITTTRRSIDNNEKKIMNMASA
Take B1: the “effect on sperm binding to UEC (in words)” value was “some areas showed massive sperm binding as seen with untreated UEC, whereas others were not populated at all”.

(Values after patent publication US20180200345A1, “PROCESS AND COMPOSITION FOR LOW DOSE INSEMINATION” (IMV TECHNOLOGIES, priority 2015, published 2018).)
